The record followed here is patent US20250179210A1, “ANTI-CEACAM5 ANTIBODIES AND CONJUGATES AND USES THEREOF” (Merck Patent GmbH, priority 2022, published 2025).

The test system of one test is NCI-H441. As to the kind of experiment: Flow cytometry binding to cell lines. Also noted: species or system human. As to conditions: 10 μg/mL primary antibody. The procedure:
(§1) Method used: 5E5 to 1E6 cells were used for flow cytometry analyses using a BD FACSCanto II (BD Biosciences) in 5 mL polystyrene tubes. Staining with 10 μg/mL primary antibodies (mAb1, rb8G4, mouse monoclonal Agilent Dako #M7072 clone #IL7) and respective fluorescently labeled secondary antibodies (donkey anti-human IgG Jackson-Dianova #709-116-149; donkey anti-mouse IgG Jackson ImmunoResearch #715-116-150, donkey anti-rabbit IgG Jackson-Dianova #711-116-152) were conducted in 50 μL 1% PBS/BSA for 20 to 30 min at 4° C. Between and after staining steps, cells were washed thrice with 1% PBS/BSA and resuspended in 500 μL 1% PBS/BSA (including 0.2 μg/mL DAPI for live cell gating) for flow cytometry analyses. For data evaluation, FlowJo software (BD Biosciences) was used.

The next test concerns MDA-MB-468. In words: Flow cytometry binding to cell lines. Also noted: species or system human. As to conditions: 10 μg/mL primary antibody. The procedure: as §1
Another test relates to MKN-45. As to the kind of experiment: Flow cytometry binding to cell lines. As to conditions: 10 μg/mL primary antibody. Details: species or system human. On the procedure: as §1
The next test relates to A549. As to the kind of experiment: Flow cytometry binding to cell lines. The following applies: 10 μg/mL primary antibody. Also noted: species or system human. On the procedure: as §1
In test [1] the target is T1, CEACAM5 in cancer cell line lysates (Homo sapiens, UniProt P06731).
T1 construct: endogenous in cells; host or cells: CEACAM5-positive and -negative cancer cell lines (RIPA lysates)
T1 sequence (P06731 35-685): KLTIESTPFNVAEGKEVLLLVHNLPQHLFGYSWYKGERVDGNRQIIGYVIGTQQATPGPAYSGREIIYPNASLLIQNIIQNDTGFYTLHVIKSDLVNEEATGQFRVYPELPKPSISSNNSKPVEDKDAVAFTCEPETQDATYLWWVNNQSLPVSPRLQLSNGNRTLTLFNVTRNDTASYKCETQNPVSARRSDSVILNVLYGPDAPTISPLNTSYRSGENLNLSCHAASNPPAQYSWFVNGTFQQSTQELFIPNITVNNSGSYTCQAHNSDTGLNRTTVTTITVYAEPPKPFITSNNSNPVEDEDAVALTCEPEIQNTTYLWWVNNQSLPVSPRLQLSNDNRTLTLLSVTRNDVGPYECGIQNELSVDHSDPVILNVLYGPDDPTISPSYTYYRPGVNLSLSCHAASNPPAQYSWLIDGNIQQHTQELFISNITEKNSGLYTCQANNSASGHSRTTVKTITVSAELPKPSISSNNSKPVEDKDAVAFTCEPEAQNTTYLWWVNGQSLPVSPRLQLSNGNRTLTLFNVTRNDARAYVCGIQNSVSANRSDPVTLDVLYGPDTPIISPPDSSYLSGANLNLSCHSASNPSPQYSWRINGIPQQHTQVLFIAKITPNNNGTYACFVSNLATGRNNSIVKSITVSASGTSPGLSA
In words: Western blot on cancer cell line lysates. It counts as binding. The following applies: CEACAM5-positive and -negative cell line lysates. The procedure:
Method used: Western blots were performed according to standard protocols (Sambrook, J. & Russell, D. W., 2001. Molecular Cloning: A Laboratory Manual, Volume 1, CSHL Press). For SDS-PAGE followed by membrane wet blotting, 15 μg total protein of RIPA cell lysates quantified by BCA kit (Thermo Scientific, #23227) were loaded per lane. Criterion XT 4-12% gels (Bio-Rad, #3450125) using MOPS running buffer (Bio-Rad #1610788) were used in a Criterion electrophoresis cell (Bio-Rad, #1656001). Transfer of proteins was confirmed by Ponceau staining. Membranes were washed before and in-between staining with 0.5 μg/mL to 1 μg/mL primary (mAb1 or rb8G4) and secondary antibodies (anti-human IgG, Jackson ImmunoResearch #109-035-098 or anti-rabbit IgG, CellSignaling #7074) was conducted. Stained membranes were visualized by ECL detection reagent using a Fusion FX imaging system (Vilber).

Test [2] addresses T2, CEACAM-5 in FFPE cancer cell lines and human tumor tissues (Homo sapiens, UniProt P06731).
T2 construct: formaldehyde fixed paraffin embedded (FFPE) cancer cell line microarrays (CMAs) and human tumor tissues; from tissue; host or cells: FFPE cancer cell line microarrays and human tumor tissues
T2 sequence (P06731 35-676): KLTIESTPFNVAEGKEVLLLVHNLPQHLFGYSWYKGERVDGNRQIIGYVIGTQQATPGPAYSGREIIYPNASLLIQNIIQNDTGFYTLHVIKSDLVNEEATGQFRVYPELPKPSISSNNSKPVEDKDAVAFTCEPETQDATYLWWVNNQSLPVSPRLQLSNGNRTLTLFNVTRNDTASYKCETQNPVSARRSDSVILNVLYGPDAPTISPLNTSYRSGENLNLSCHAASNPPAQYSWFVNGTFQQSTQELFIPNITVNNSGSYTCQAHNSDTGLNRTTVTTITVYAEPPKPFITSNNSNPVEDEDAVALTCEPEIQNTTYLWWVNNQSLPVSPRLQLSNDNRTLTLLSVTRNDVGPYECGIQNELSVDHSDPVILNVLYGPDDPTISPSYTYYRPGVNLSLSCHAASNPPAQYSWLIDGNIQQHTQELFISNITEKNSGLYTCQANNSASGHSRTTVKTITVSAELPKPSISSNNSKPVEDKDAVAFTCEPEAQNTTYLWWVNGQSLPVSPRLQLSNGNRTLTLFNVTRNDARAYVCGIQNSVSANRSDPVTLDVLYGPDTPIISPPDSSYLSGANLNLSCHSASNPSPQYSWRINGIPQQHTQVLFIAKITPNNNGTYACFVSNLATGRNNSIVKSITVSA
In words: Immunohistochemistry on FFPE cell lines and human tissues. The procedure: For the IHC staining with the anti-CEACAM-5 antibody rb8G4, sections of 4 μm from formaldehyde fixed paraffin embedded (FFPE) cancer cell line microarrays (CMAs) and human tumor tissues were mounted on charged slides (SuperFrost Ultra Plus, Thermo Fisher Scientific or TOMO, Matsunami). The staining procedure was performed using a Discovery XT (Roche Diagnostics) staining platform. Following deparaffinization, the sections were heated for epitope retrieval in Tris-EDTA buffer pH 8 (CC1, Roche Diagnostics). The sections were incubated with the primary monoclonal antibody rb8G4 diluted to 0.5 or 0.7 μg/ml in phosphate-buffered saline (PBS) or antibody diluent buffer (DCS). The clone DA1E (rabbit monoclonal IgG, NEB) served as isotype control antibody. The primary antibodies were followed by the HQ anti-rabbit IgG detection kit (Roche Diagnostics). […]
CMAs and the TMA with human organ tissue were stained and scanned with the NanoZoomer (Hamamatsu) with a resolution of 0.46 μm/pixel. […] The scans of the CMAs were analyzed with the image analysis software HALO (Indica Labs, USA). For the determination of the amount of antigen present, positive brown stained area was calculated as percent area of the viable tissue area. Staining (arbitrary units) is calculated as […]

The target of test [3] is cynomolgus_monkey-CEACAM5. As to the kind of experiment: Binding affinity on Octet Red (Fab format). As to conditions: biotinylated Macaca fascicularis CEACAM5_ECD-His captured, KD=kd/ka. An excerpt: • To determine the binding affinity of soluble antibody analyte to captured target protein CEACAM5 (human or cynomolgus monkey Macaca fascicularis).
Test [4] deals with other human CEACAM family members (huCEACAM6, huCEACAM1, huCEACAM3, huCEACAM7, huCEACAM8, huPSG1). As to the kind of experiment: Selectivity ELISA, different CEACAM proteins (Fab). The format is binding. The following applies: even when using 1000 nM Fab. An excerpt: (§2) Selectivity determination for Fab of mAb1 to human CEACAM5 and other human CEACAM family members was done in ELISA assay. Proteins were coated on 96-well assay plates: huCEACAM5-His6 (R&D Systems #4128-CM), huCEACAM6-His6 (3934-CM R&D Systems and recombinant protein obtained from Syngene), huCEACAM1-His6 (2244-CM R&D Systems), huCEACAM3-His6 (C449 Novoprotein), huCEACAM7-His6 (C926 Novoprotein), huCEACAM8-His6 (C583 Novoprotein), huPSG1-His6 (CC66 Novoprotein), each protein was coating the plate at 12 nM concentration.

The target in the next test is BSA (Bos taurus, UniProt P02769). As to the kind of experiment: Selectivity ELISA, unrelated protein (Fab). The format is binding. As to conditions: all concentrations tested.
From the text: as §2

Chain of cynomolgus_monkey-CEACAM5 (as listed by the source): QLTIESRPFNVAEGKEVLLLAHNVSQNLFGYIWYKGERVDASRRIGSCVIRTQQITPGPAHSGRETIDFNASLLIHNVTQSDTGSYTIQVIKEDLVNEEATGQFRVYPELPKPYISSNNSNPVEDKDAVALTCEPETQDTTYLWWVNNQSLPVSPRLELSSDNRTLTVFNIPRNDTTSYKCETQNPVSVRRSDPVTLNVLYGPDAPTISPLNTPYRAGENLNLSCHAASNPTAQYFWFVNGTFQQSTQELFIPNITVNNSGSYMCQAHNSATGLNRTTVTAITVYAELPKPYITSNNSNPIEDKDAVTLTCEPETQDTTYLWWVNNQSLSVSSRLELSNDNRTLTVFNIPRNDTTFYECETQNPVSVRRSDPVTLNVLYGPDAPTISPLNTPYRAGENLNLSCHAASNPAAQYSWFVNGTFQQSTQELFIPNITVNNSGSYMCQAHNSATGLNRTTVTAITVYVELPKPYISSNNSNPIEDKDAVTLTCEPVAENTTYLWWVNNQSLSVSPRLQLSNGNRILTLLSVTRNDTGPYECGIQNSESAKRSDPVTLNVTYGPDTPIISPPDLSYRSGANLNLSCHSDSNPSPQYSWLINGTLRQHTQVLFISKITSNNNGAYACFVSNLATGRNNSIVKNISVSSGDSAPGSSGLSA
Chain of BSA (P02769 25-607): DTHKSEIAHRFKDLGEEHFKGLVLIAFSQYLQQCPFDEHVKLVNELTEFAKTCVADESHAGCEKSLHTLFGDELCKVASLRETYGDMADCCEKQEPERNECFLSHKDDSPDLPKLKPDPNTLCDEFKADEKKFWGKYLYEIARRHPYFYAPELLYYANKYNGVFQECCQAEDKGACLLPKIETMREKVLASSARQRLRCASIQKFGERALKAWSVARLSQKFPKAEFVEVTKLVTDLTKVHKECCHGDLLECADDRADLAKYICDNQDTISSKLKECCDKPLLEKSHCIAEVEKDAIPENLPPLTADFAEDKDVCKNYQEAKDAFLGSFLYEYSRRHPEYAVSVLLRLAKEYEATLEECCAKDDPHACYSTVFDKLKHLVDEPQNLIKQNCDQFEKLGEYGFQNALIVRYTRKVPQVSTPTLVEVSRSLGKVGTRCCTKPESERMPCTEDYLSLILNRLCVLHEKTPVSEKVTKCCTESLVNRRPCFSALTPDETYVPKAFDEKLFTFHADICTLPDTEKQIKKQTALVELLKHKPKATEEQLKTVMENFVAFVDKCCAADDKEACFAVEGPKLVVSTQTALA

B1: rb8G4 (antibody)
heavy: EVQLQESGPGLVKPSQTLSLTCTVSDGSVSRGGYYLTWIRQHPGKGLEWIGYIYYSGSTYFNPSLRSRVTMSVDTSKNQFSLKLSSVTAADTAVYYCARGIAVAPFDYWGQGTLVTVSSQPKAPSVFPLAPCCGDTPSSTVTLGCLVKGYLPEPVTVTWNSGTLTNGVRTFPSVRQSSGLYSLSSVVSVTSSSQPVTCNVAHPATNTKVDKTVAPSTCSKPTCPPPELLGGPSVFIFPPKPKDTLMISRTPEVTCVVVDVSEDDPEVQFTWYINNEQVRTARPPLREQQFNSTIRVVSTLPIAHEDWLRGKEFKCKVHNKALPAPIEKTISKARGQPLEPKVYTMGPPREELSSRSVSLTCMINGFYPSDISVEWEKNGKAEDNYKTTPAVLDSDGSYFLYSKLSVPTSEWQRGDVFTCSVMHEALHNHYTQKSISRSPGK
light: EIVLTQSPATLSVSPGERATLSCRTSQSVRSNLAWYQQKPGQAPRLLIYAASTRATGIPARFSGSGSGTEFTLTISSLQSEDFAVYYCQQYTNWPFTFGPGTKVDIKRDPVAPSVLLFPPSKEELTTGTATIVCVANKFYPSDITVTWKVDGTTQQSGIENSKTPQSPEDNTYSLSSTLSLTSAQYNSHSVYTCEVVQGSASPIVQSFNRGDC
Turning to B1, the “Quotient of MFI of antibody divided by MFI of secondary antibody only control” value in the test on NCI-H441 was 3.2; in the test with MDA-MB-468 it was 1.0; in the test on MKN-45, 36.2; with A549 it was 1.1. In [1], the “CEACAM5 detection in Western blot” value is given as “specific to CEACAM5-positive cell lines”. Moreover, the “Pearson correlation coefficient r of IHC staining signal with CEACAM5 mRNA expression” value in test [2] (104 cancer cell lines, CCLE dataset) was 0.88. Further, in [2] (colorectal, gastric, esophageal and non-small cell lung cancer), the “IHC staining of human tumor tissue” value was “stained positive”.

B2: Fab of mAb1: Fab format of antibody mAb1 (antibody, V domains shown)
VH: EVQLQESGPGLVKPSQTLSLTCTVSDGSVSRGGYYLTWIRQHPGKGLEWIGYIYYSGSTYFNPSLRSRVTMSVDTSKNQFSLKLSSVTAADTAVYYCARGIAVAPFDYWGQGTLVTVSS
VL: EIVLTQSPATLSVSPGERATLSCRTSQSVRSNLAWYQQKPGQAPRLLIYAASTRATGIPARFSGSGSGTEFTLTISSLQSEDFAVYYCQQYTNWPFTFGPGTKVDIK
Take B2: in test [3], the Kd came out at 0.0141 ± 0.00253 µM. The “Binding to the other human CEACAM family members” value in [4] is given as “did not bind”. For the same molecule, the “Binding to unrelated protein (BSA)” value with BSA was “did not bind”.
